Tested on: S. cerevisiae VSK-128 ACS2 deletion strain
Experiment: AADH in vivo growth assay, ACS2 deletion strain on glucose-based agar plates
Assay type: cell-based
Description: All copies of the ACS2 gene were deleted from the industrial S. cerevisiae VSK-128 strain in order to generate a strain with a defective PDH-bypass that was incapable of growth on glucose-based medium. Expression vectors carrying the 25 different AADH variants were then transformed into this ACS2 deletion strain to evaluate their ability to recover the growth of this strain on glucose.
There was a good correlation between the in vitro AADH enzyme activity assays and the in vivo growth recovery analyses.

Molecule	recovery of the growth deficiency of the ACS2-deletion strain
AADHbs: eutE type AADH of Blautia sp. CAG: 237, GenBank CDB76812.1 (protein, AADHbs) MDEIMIKNIVREVLMKTNLDISCKSDQGVFEDVNDAIDAAYIAQRDWYMNYKVEDRRRIIEAIRVVARENAPMFAKMIHEETGMGRYEDKITKNLAVIDKTPGVECLVTDAISGDSGLMIEEQAPFGVIGAITPSTNPTETIINNTISMIGGGNAVVFNVHPGAKKVCAVCLQILHKTIVENGGPANLITMQRKPDMEAVNKLTASPKIRLMVGTGGMGMVNALLKSGKKTIGAGAGNPPVVVDDTADLDKAASEIYRGASFDNNLLCLAEKETFVMDNVADELIRKMCACGAHLITPQETEQLLKVIFLEKDGKYSVNKKWVGKDASLILESIGIKDADTRLVLCEVPHDHPFVLVEQLMPIMPIVRCKTFEDCVKYAVVAENGNRHTASMFSKNVDHMTRFAKEIETTIFTKNAATLVGVGIGGEGHTTMTIAGPTGEGLTCARSFTRRRRCMLADGGLRVI	capable of recovering the growth deficiency
AADHhs: eutE type AADH of Halanaerobium saccharolyticum DSM 6643, GenBank CCU77919.1 (protein, AADHhs) MKIKENELDKIVNQVISSLNNKQNSNDFNTKINYGIFSTMDEAIAEAVKAQACLQLNYSTEAREKIIKSIRKNVSKHVEKISEMAVEETDMGRIEDKIIKNNLAINKTPGTEDLRTEAFSGKKGLTIVEEAPFGVICSIAPVTNPTETIISNAISMIASCNGVVFNSHPGAKKVSKYIIEVLNKVIMEAGGPENLLTAVNEPTLQTVESCMRDDRIAMIVATGGPGVVNAALSSGKKAIGAGAGNPPVLVDDTVDLKRVAKDIINGASFDNNLPCTSEKAIVALESIADSLLNEMTNQNAQLVHDIKALERVILNDDGSINKALVGKDAAFILNKAGLKAKSEDLRLVIVDVDLRHPFVQKEQLMPVIPLVRAKNFNEAMEMGVDIEEGNRHTAIIHSKNVDNLTKFAKKIETTIYVKNAPSYAGIGAGGEGYATFTIAGPTGEGLTSARSFTRKRRCVLVDGFSII	capable of recovering the growth deficiency
AADHta: eutE type AADH of Tolumonas auensis DSM 9187, GenBank ACQ93307.1 (protein, AADHta) MNNTELESLIRTILTEQLTPSATDTPACTASSVALFDDVDSAICAAHAAFLRYQEAPLKTRSAIIAAIRAEIAPCLSELAERAAAETGMGNTADKILKNKAALENTPGIEDLKTTALTGDEGMVLFEYSPFGVVGAVAPSTNPTETIINNSISMLAAGNAIYFSPHPGAKNISLWLIQKMEEIAFKVCGIHNLIVTVKEPTFEATQQMMAHDKIALLAITGGPGIVNMGLKSGKKVIGAGAGNPPCLVDETAEIVKAAQDIVAGASFDYNLPCIAEKSVIAVDCIADQLIQQMREFGAMQITDPQQIAQLREVCIQKGAANKSLVGKSPATILAAAGIPCPAKEPRLIILEVPANDPFVVTEQLMPVLPIVRVDNFEQGLQLALKVEDGLHHTAMMHSQNVSRLNKAAHLMQTSIFVKNGPSYAGIGVGAEGFTTFTIATPTGEGTTSARTFGRLRRCVLTNGFSIR	capable of recovering the growth deficiency
AADHtl: eutE type AADH of Thauera linaloolentis DSM 12138, GenBank ENO90114.1 (protein, AADHtl) MVDIDLKNVEQIVRTVLASMQTQPQAVQPAAGRRAAPGVFTELDDAVAEASTAQRAIRNLATRVKVVEAIRKAAEAHARELAELAVAETGMGRVEDKFAKNVSQARHTPGVECLAPTALTGDRGLTLIENAAWGVIASVTPSTNPAATIINNAISMISAGNTVVFAPHPAAKKVSQRTVSLLNEASVAAGGPDNVVTTVLNPDIATAQRLFSYPGIHLLTVTGGEAVVEAARKHTDKRLIAAGAGNPPVVVDETADLARAARDIVWGASFDNNIICVDEKEIIVVDRVCDALKTEMARHKAVELTPDQGKRLVDVLLNYVGADGRGTVSRDWVGRDAAKIAAAIGLEVPADTRLLYIETPADHPFAVTELMMPVIPVVRAPDVDAAIDLAVKLEGNCRHTAAMHSRNIDALDRMANAINTSIFVKNGPCLAGLGFGGEGWTTMTISTPTGEGVTSARTFVRLRRCVLVDHFRIV	capable of recovering the growth deficiency

From patent publication US10704064B2, “Recombinant yeast producing 3-hydroxypropionic acid and method for producing 3-hydroxypropionic acid using the same” (SK Innovation Co., Ltd., priority 2014, dated 2020)
